# Test results reported in paper PMC10368747, “Zinc-finger BED domains drive the formation of the active Hermes transpososome by asymmetric DNA binding”.
# Values joined by “and” are separate entries in the source; they are usually repeats but may differ in a detail not shown here. Equal values may be shown once.
# T1: Hermes BED domain (Musca domestica, UniProt Q25442 1-78)
# T1 sequence: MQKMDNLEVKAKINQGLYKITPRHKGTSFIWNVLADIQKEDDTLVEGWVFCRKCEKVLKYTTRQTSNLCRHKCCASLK
# Assays:
# [1] = target: full-length Hermes transposase (with the mutations Q2E and K128G) (Musca domestica) (UniProt Q25442); experiment: SEC + other: mass photometry; purified Hermes transposase alone, dialysed against 25 mM HEPES.Na pH 7.5, 0.3 mM TCEP with 0.5, 0.25 or 0.15 M NaCl; Superose 6 SEC; mass photometry at 50, 65 and 30 nM; higher salt favours the octamer, lower salt the hexamer
# [2] = target: full-length Hermes transposase (with the mutations Q2E and K128G) (Musca domestica) (UniProt Q25442); experiment: cryo-EM structure; RE-RE transpososome: Hermes with 8 + RE-TIR + 30 DNA, 8:2 protein-to-DNA, 150 mM NaCl, 25 mM HEPES.Na pH 7.5, purified by SEC
# [3] = target: full-length Hermes transposase (with the mutations Q2E and K128G) (Musca domestica) (UniProt Q25442); experiment: cryo-EM structure; LE-LE transpososome: Hermes with 8 + LE-TIR + 30 DNA, 8:2 protein-to-DNA, 150 mM NaCl, 25 mM HEPES.Na pH 7.5, purified by SEC
# [4] = target: full-length Hermes transposase (with the mutations Q2E and K128G) (Musca domestica) (UniProt Q25442); experiment: as above; remark: listed apart in the source
# [5] = target: full-length Hermes transposase (with the mutations Q2E and K128G) (Musca domestica) (UniProt Q25442); experiment: mass photometry; Hermes (10 µM) mixed with 2.5, 5 or 10 µM left-end DNAs, dialysed to 150 mM NaCl, 25 mM HEPES.Na pH 7.5, 0.3 mM TCEP, diluted 50 and 100 times; composition by subtracting the mass of the hexamer or octamer
# [6] = target: T1, Hermes BED domain; experiment: EMSA; two BED per DNA, cooperative; 0.5 uM ran17 competitor; value assigned by the peer review file; BED EMSA: 25 mM HEPES.Na pH 7.5, 150 mM NaCl, 0.3 mM TCEP, 1 uM DNA, 0.5 uM ran17, 0-10 uM BED, 1 h 4 C then 15 min RT; 15% PAGE 0.5X TBE; Hermes SEC at 150 mM; conditions: protein: recombinant; tags: untagged; label: 5'-6FAM top strand (EMSA, 10% of the DNA); blunt
# [7] = target: T1, Hermes BED domain; experiment: EMSA; one BED per DNA; Kd in Fig. 6c is 1.7 or 2.8 uM, assignment not resolvable from text; BED EMSA: 25 mM HEPES.Na pH 7.5, 150 mM NaCl, 0.3 mM TCEP, 1 uM DNA, 0.5 uM ran17, 0-10 uM BED, 1 h 4 C then 15 min RT; 15% PAGE 0.5X TBE; Hermes SEC at 150 mM; conditions: protein: recombinant; tags: untagged; label: 5'-6FAM top strand (EMSA); blunt
molecule,measurement,setting,value
full-length Hermes transposase (with the mutations Q2E and K128G) (from UniProt Q25442 1-612) (enzyme),stoichiometry N,[1],6 monomers and 8 monomers
same,stoichiometry N,[2],8
same,stoichiometry N,[3],6
same,stoichiometry N,[4],8
same,stoichiometry N,[5],6 and 8
LE11-27 (dsDNA) DNA 1: CAACAAGTGGCTTATTT DNA 2: AAATAAGCCACTTGTTG,Kd,[6],2.5 ± 0.2 µM
LE11-27mut (dsDNA) DNA 1: CAACAAGTGTTTTATTT DNA 2: AAATAAAACACTTGTTG,binding result,[7],binds
